# Test results reported in patent US8026342B2, “Compositions and methods for binding sphingosine-1-phosphate” (Lpath, Inc., priority 2006, dated 2011).
# B1: LT1002: murine anti-S1P monoclonal antibody, IgG1 kappa, from hybridoma clone 306D326.26 (antibody, listed as Mus sp., V domains shown)
# VH: QAHLQQSDAELVKPGASVKISCKVSGFIFIDHTIHWMKQRPEQGLEWIGCISPRHDITKYNEMFRGKATLTADKSSTTAYIQVNSLTFEDSAVYFCARGGFYGSTIWFDFWGQGTTLTVS
# VL: ETTVTQSPASLSMAIGEKVTIRCITTTDIDDDMNWFQQKPGEPPNLLISEGNILRPGVPSRFSSSGYGTDFLFTIENMLSEDVADYYCLQSDNLPFTFGSGTKLEIK
# Legend:
# [1] = GLP 28-day safety toxicology study of LT1009 in monkeys; assay type: in vivo
# Protocol: In addition, blood was collected from recovery animals 48, 72, 144 and 240 hours following the end of the last dose. Parameters monitored during this study included mortality, clinical signs, body weight, qualitative evaluation of the food consumption, ophthalmology, electrocardiography, and clinical pathology (hematology, clinical chemistry, coagulation and urinalysis). Blood samples were also collected for immunophenotyping assessments, at pre-treatment, on the last day of treatment, and on days 35, 42 and at the end of the recovery period. At termination, a macroscopic examination was performed and selected organs were weighed. Histological evaluation of tissues was conducted on all animals.
# DU145 tumor = assay: SC DU145 prostate tumor xenograft; assay type: in vivo, nude NCr (nu/nu) mice; conditions: LT1009 50 mg/kg ip q2d; Avastin 20 mg/kg q4d; Paclitaxel 7.5 mg/kg q1d×5
# Protocol: Nude mice were implanted sc near the right flank with one fragment per mouse of DU145 tumor from an in vivo passage. All treatments were initiated the day when 60 mice in each experiment established tumors ranging in size from approximately 100 to 200 mm^3. […] Paclitaxel and Avastin were administered iv and ip at a dosage of 7.5 mg/kg/dose and 20 mg/kg/dose, q1d×5 and q4d, respectively, injected in a volume of 0.1 mL/10 g body weight.
# During the course of the study tumor growth was monitored by measuring the sc tumors on three axes and calculating the volume. At the end of the study final tumor weights and volumes were determined and then the mice were sacrificed, the tumors harvested. Microvascular densities (MVD) of the tumors were then determined by CD-31 staining.
# [2] = tested on: experimental autoimmune encephalomyelitis; assay: MOG35-55 induced EAE model of multiple sclerosis; assay type: in vivo, C57BL/6J mice
# Protocol: Experimental protocol—the following experiments were conducted in the laboratory of Dr. Howard Weiner in collaboration with Lpath, Inc. A peptide fragment of myelin oligodendrocyte glycoprotein (MOG35-55; […] (SEQ ID NO: 52)) is used to cause experimental EAE in mice. Mendel, I. et al., A myelin oligodendrocyte glycoprotein peptide induces typical chronic experimental autoimmune encephalomyelitis in H-2b mice: fine specificity and T cell receptor V beta expression of encephalitogenic T cells, Eur J Immunol. 1995 July; 25(7):1951-9. EAE was induced in mice by immunization with a peptide corresponding to amino acids 35-55 of myelin oligodendrocyte glycoprotein (MOG) peptide (MOG35-55) to induce chronic experimental autoimmune encephalomyelitis (EAE). Following immunization with MOG35-55, mice develop an acute episode of EAE that is followed by a gradually developing progressive disease thought to model several features of progressive multiple sclerosis. Mice were treated with antibody to S1P and treated mice were followed to study the effects of S1P-specific antibody on the clinical manifestations of this acute model of EAE. At the end of the experiment, treated mice were also used to analyze the effect of anti-S1P administration on the immune response.
# In a first set of experiments, using 10 mice per group with an average weight of 20 gr, EAE was induced in C57BL/6J mice with 150 ug/mouse MOG35-55 in CFA along with […] pertussis toxin on days 0 and 2. Anti-S1P antibody LT1002 (Sphingomab™) was administered i.v. at a dosage of 75 mg/Kg on day-1, followed by i.p. dosing at 25 mg/Kg every 2 days. Treated mice were followed for 25 days to study the effects of S1P-specific antibodies on the clinical manifestations of this acute model of EAE. Clinical manifestations of the disease include flaccid tail, and limb paralysis which may be scored to give an objective evaluation of clinical symptoms. The standard evaluation of disease severity in the EAE model measures clinical behavior on a 0-6 scale: 0) normal; 1) flaccid tail; 2) abnormal gait, hind leg weakness; 3) partial paralysis, severe ataxia; 4) minimal hind leg movement after painful stimulus; 5) no hind leg movement; 6) moribund state with little or no movement. Means were compared between groups to determine the effect of treatment on clinical scores and body weight gain. Statistical significance of clinical scores and weight were resolved using biostatistical analysis.
# At day 17, two representative mice were sacrificed to study the cellular immune response (proliferation and cytokines) and to analyze CNS pathology. Spinal cords were dissected and sectioned. Sections were stained with hematoxylin and eosin (H&E) to reveal inflammatory cells, with Luxol to visualize myelin, or with silver stain to visualize axons. Total levels of CD4+FoxP3+Treg cells were evaluated by FACS analysis of blood samples taken from the tail on day 17. At day 25, treated mice were analyzed to see the effect of anti-S1P administration on the immune response.
# Injection of synthetic MOG peptide (amino acids 35-55 of myelin oligodendrocyte glycoprotein, referred to as MOG35-55) causes mice to develop significant specific T cell responses in addition to neurological symptoms. Spahn et al., (1999) Eur. J. Immunol 29:4060-4071. Anti-S1P administration was associated with a significant decrease in this proliferative recall response to MOG35-55. Mice were primed by injections of MOG peptide. The spleens were removed and homogenized, and splenocytes were pulsed with different amounts of MOG peptide. Subsequently, cells were pulsed with radiolabel and incubated before cells were harvested and label incorporation was assessed by scintillation counting. […] As measured in cpm, the recall proliferative response was decreased by approximately 36%, 38% and 22% after anti-S1P antibody treatment (at 4 ug/ml, 20 ug/ml and 100 ug/ml of MOG35-55, respectively).
# [3] = 75 mg/Kg i.v. day -1, then 25 mg/Kg i.p. every 2 days
molecule,measurement,setting,value
"LT1009: humanized anti-S1P IgG1/kappa mAb with Cys to Ala in HCDR2, light chain with 5 backmutations; SEQ ID NO: 31/32",absolute number of T cells on Day 28,[1]; 100 mg/kg,statistically significant decrease
same,mean lymphocyte counts (+/-SD) after treatment,"[1]; 100 mg/kg, males and females combined",3.18+/−1.25 10^9 cells/L
same,tolerability,"[1]; 3, 10, 30 and 100 mg/kg every third day over 28 days",well tolerated
same,No Observed Toxic Effect Level (NOTEL),[1]; 30-minute i.v. infusion every third day for 28 days,100 mg/kg
same,% Reduction compared to Vehicle-Treated Mice,DU145 tumor,28%
same,Final Tumor Weights,DU145 tumor,2242 mg
B1,decrease in recall proliferative response to MOG35-55 (cpm),[2]; 4 ug/ml MOG35-55,approximately 36%
same,decrease in recall proliferative response to MOG35-55 (cpm),[2]; 20 ug/ml MOG35-55,~38%
same,decrease in recall proliferative response to MOG35-55 (cpm),[2]; 100 ug/ml MOG35-55,~22%
same,EAE development,[2]; [3],significant inhibition
same,EAE severity score (0-6 scale) at plateau,[2]; [3],approximately 2
same,circulating lymphocytes,[2]; antibody-treated animals,approximately 10%
same,demyelination in spinal cord,[2]; antibody-treated animals,less than 1%
same,"spleen CD4+ T cells, of lymphocytes in spleen",[2]; antibody-treated animals,approximately 7.6%
same,axonal loss,[2]; antibody-treated mice,less than 2%
same,CD4+CD25+Foxp3+ Treg in spleen,"[2]; mouse, in vivo",significant increase
same,IFNγ secretion by splenocytes upon MOG35-55 stimulation,"[2]; mouse, in vivo",lower levels
same,IL-10 secretion by splenocytes upon MOG35-55 stimulation,"[2]; mouse, in vivo",higher levels
same,IL-17 secretion by splenocytes upon MOG35-55 stimulation,"[2]; mouse, in vivo",lower levels
same,circulating CD4+CD25+Foxp3+ Treg cells,"[2]; mouse, in vivo",statistically nonsignificant increase
same,decrease in spleen CD4+ T cells after antibody treatment,[2]; vs control animals,~35%
same,decrease in circulating lymphocytes after antibody treatment,[2]; vs control animals with EAE,~26%
same,decrease in axonal loss after treatment,[2]; vs untreated controls with EAE,~91%
same,decrease in demyelination after treatment,[2]; vs untreated controls with EAE,~92%
same,decrease in number of inflammatory cells/mm^2 in spinal cords,[2]; vs untreated controls with EAE,about 85%
